Results: publication PMC6125598

Biological target: STIM1-CFP (stromal interacting molecule 1) (UniProt Q13586)
Experiment: FRET or BRET; FRET between YFP-IP3R and STIM1-CFP in transfected cells, measured in TIRFM mode (less than 100 nm from the coverslip), after bradykinin stimulation (cells transfected with the human bradykinin type 2 receptor)

Sequence of UniProt Q13586 (Q13586 23-685): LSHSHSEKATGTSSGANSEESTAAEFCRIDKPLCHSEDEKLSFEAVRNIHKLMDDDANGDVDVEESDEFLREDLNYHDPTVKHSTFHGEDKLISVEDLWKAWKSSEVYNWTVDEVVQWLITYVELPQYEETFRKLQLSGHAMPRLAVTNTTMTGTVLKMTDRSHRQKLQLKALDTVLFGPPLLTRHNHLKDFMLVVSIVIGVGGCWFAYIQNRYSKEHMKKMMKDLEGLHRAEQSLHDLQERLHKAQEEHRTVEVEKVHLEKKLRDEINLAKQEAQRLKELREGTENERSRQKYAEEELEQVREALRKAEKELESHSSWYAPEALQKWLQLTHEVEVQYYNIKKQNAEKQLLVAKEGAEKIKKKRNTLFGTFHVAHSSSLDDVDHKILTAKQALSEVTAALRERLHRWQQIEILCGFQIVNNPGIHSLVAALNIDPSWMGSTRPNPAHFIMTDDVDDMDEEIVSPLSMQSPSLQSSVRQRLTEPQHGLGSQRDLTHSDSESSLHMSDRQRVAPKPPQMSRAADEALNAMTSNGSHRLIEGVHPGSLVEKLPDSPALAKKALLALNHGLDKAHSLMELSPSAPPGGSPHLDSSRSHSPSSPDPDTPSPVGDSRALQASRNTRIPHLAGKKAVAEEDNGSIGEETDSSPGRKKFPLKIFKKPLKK

FRET efficiency: 24%
Substance: YFP-IP3R (inositol trisphosphate receptor type 1) (from UniProt Q14643-2 1-2743)
